# Reference: patent publication US20140294828A1 (COMPLIX, published 2014)
# B1: single-chain Alphabody scAB_Env03_KC (designed binder)
# chain: MGHHHHHHHHHHSSGHIEGRHMSIEEIQKPIATIQEAIAWIQKKIYMMTGGSGGGSGGGSGGGSGMSIEEIQKQIAAIQCQIAAIQKQIYAMTGGSGGGSGGGSGGGSGMSIEEIQKQIVAIMEQIVAIVKQISAMTP
# modifications: Interchain disulfide between Cys80 of chain 1 and Cys80 of chain 2 (homodimer; paragraph 268, and FIG.11 prints 'scAB_Env03_KC (dimer)').
# notes: also called Env03 Cys-mutant
# Target: HIV-1 Env of the HXB2 strain (envelope glycoprotein complex gp120/gp41) (HIV-1 (HXB2 strain), UniProt P04578 33-856)
# Test: cell-based or functional assay
binder,measurement,value
B1,"50% inhibitory concentration (IC50), 5-day MTT infection assay, HXB2 virus on MT4-X4 cells",709 nM
